Laboratory results published in patent publication US20150344570A1 (published 2015).

B1: GpH7-A5/GpH7-B3 variant S239_08L/GpL16-k0 (antibody, human IgG1, kappa)
heavy 1: not shown
heavy 2: not shown
light: DIVMTQSPLSLPVTPGEPASISCQASESLVHSNRNTYLHWYLQKPGQSPQLLIYKVSNRFSGVPDRFSGSGSGTDFTLKISRVEAEDVGVYYCSQNTHVPPTFGQGTKVEIERTVAAPSVFIFPPSDEQLKSGTASVVCLLNNFYPREAKVQWKVDNALQSGNSQESVTEQDSKDSTYSLSSTLTLSKADYEKHKVYACEVTHQGLSSPVTKSFNRGEC
notes: Heterodimerized antibody (He Ab): mutation in the GpH7-B3 chain only; also called He Ab
B2: GpH7-A5/GpH7-B3 variant S239_18N/GpL16-k0 (antibody, human IgG1, kappa)
heavy 1: not shown
heavy 2: not shown
light: DIVMTQSPLSLPVTPGEPASISCQASESLVHSNRNTYLHWYLQKPGQSPQLLIYKVSNRFSGVPDRFSGSGSGTDFTLKISRVEAEDVGVYYCSQNTHVPPTFGQGTKVEIERTVAAPSVFIFPPSDEQLKSGTASVVCLLNNFYPREAKVQWKVDNALQSGNSQESVTEQDSKDSTYSLSSTLTLSKADYEKHKVYACEVTHQGLSSPVTKSFNRGEC
notes: as for B1
B3: GpH7-A5/GpH7-B3 variant V266_04F/GpL16-k0 (antibody, human IgG1, kappa)
heavy 1: not shown
heavy 2: not shown
light: DIVMTQSPLSLPVTPGEPASISCQASESLVHSNRNTYLHWYLQKPGQSPQLLIYKVSNRFSGVPDRFSGSGSGTDFTLKISRVEAEDVGVYYCSQNTHVPPTFGQGTKVEIERTVAAPSVFIFPPSDEQLKSGTASVVCLLNNFYPREAKVQWKVDNALQSGNSQESVTEQDSKDSTYSLSSTLTLSKADYEKHKVYACEVTHQGLSSPVTKSFNRGEC
notes: as for B1
B4: GpH7-A5/GpH7-B3 variant V266_06M/GpL16-k0 (antibody, human IgG1, kappa)
heavy 1: not shown
heavy 2: not shown
light: DIVMTQSPLSLPVTPGEPASISCQASESLVHSNRNTYLHWYLQKPGQSPQLLIYKVSNRFSGVPDRFSGSGSGTDFTLKISRVEAEDVGVYYCSQNTHVPPTFGQGTKVEIERTVAAPSVFIFPPSDEQLKSGTASVVCLLNNFYPREAKVQWKVDNALQSGNSQESVTEQDSKDSTYSLSSTLTLSKADYEKHKVYACEVTHQGLSSPVTKSFNRGEC
notes: as for B1
B5: GpH7-A5/GpH7-B3 variant V266_14T/GpL16-k0 (antibody, human IgG1, kappa)
heavy 1: not shown
heavy 2: not shown
light: DIVMTQSPLSLPVTPGEPASISCQASESLVHSNRNTYLHWYLQKPGQSPQLLIYKVSNRFSGVPDRFSGSGSGTDFTLKISRVEAEDVGVYYCSQNTHVPPTFGQGTKVEIERTVAAPSVFIFPPSDEQLKSGTASVVCLLNNFYPREAKVQWKVDNALQSGNSQESVTEQDSKDSTYSLSSTLTLSKADYEKHKVYACEVTHQGLSSPVTKSFNRGEC
notes: as for B1
B6: GpH7-A5/GpH7-B3 variant V266_01G/GpL16-k0 (antibody, human IgG1, kappa)
heavy 1: not shown
heavy 2: not shown
light: DIVMTQSPLSLPVTPGEPASISCQASESLVHSNRNTYLHWYLQKPGQSPQLLIYKVSNRFSGVPDRFSGSGSGTDFTLKISRVEAEDVGVYYCSQNTHVPPTFGQGTKVEIERTVAAPSVFIFPPSDEQLKSGTASVVCLLNNFYPREAKVQWKVDNALQSGNSQESVTEQDSKDSTYSLSSTLTLSKADYEKHKVYACEVTHQGLSSPVTKSFNRGEC
notes: as for B1
B7: GpH7-A5/GpH7-B3 variant V266_08L/GpL16-k0 (antibody, human IgG1, kappa)
heavy 1: not shown
heavy 2: not shown
light: DIVMTQSPLSLPVTPGEPASISCQASESLVHSNRNTYLHWYLQKPGQSPQLLIYKVSNRFSGVPDRFSGSGSGTDFTLKISRVEAEDVGVYYCSQNTHVPPTFGQGTKVEIERTVAAPSVFIFPPSDEQLKSGTASVVCLLNNFYPREAKVQWKVDNALQSGNSQESVTEQDSKDSTYSLSSTLTLSKADYEKHKVYACEVTHQGLSSPVTKSFNRGEC
notes: as for B1
B8: GpH7-A5/GpH7-B3 variant S239_20W/GpL16-k0 (antibody, human IgG1, kappa)
heavy 1: not shown
heavy 2: not shown
light: DIVMTQSPLSLPVTPGEPASISCQASESLVHSNRNTYLHWYLQKPGQSPQLLIYKVSNRFSGVPDRFSGSGSGTDFTLKISRVEAEDVGVYYCSQNTHVPPTFGQGTKVEIERTVAAPSVFIFPPSDEQLKSGTASVVCLLNNFYPREAKVQWKVDNALQSGNSQESVTEQDSKDSTYSLSSTLTLSKADYEKHKVYACEVTHQGLSSPVTKSFNRGEC
notes: as for B1
B9: GpH7-A5/GpH7-B3 variant S239_09D/GpL16-k0 (antibody, human IgG1, kappa)
heavy 1: not shown
heavy 2: not shown
light: DIVMTQSPLSLPVTPGEPASISCQASESLVHSNRNTYLHWYLQKPGQSPQLLIYKVSNRFSGVPDRFSGSGSGTDFTLKISRVEAEDVGVYYCSQNTHVPPTFGQGTKVEIERTVAAPSVFIFPPSDEQLKSGTASVVCLLNNFYPREAKVQWKVDNALQSGNSQESVTEQDSKDSTYSLSSTLTLSKADYEKHKVYACEVTHQGLSSPVTKSFNRGEC
notes: as for B1
B10: GpH7-A5/GpH7-B3 variant V266_10E/GpL16-k0 (antibody, human IgG1, kappa)
heavy 1: not shown
heavy 2: not shown
light: DIVMTQSPLSLPVTPGEPASISCQASESLVHSNRNTYLHWYLQKPGQSPQLLIYKVSNRFSGVPDRFSGSGSGTDFTLKISRVEAEDVGVYYCSQNTHVPPTFGQGTKVEIERTVAAPSVFIFPPSDEQLKSGTASVVCLLNNFYPREAKVQWKVDNALQSGNSQESVTEQDSKDSTYSLSSTLTLSKADYEKHKVYACEVTHQGLSSPVTKSFNRGEC
notes: as for B1
B11: GpH7-A5/GpH7-B3 variant V266_12R/GpL16-k0 (antibody, human IgG1, kappa)
heavy 1: not shown
heavy 2: not shown
light: DIVMTQSPLSLPVTPGEPASISCQASESLVHSNRNTYLHWYLQKPGQSPQLLIYKVSNRFSGVPDRFSGSGSGTDFTLKISRVEAEDVGVYYCSQNTHVPPTFGQGTKVEIERTVAAPSVFIFPPSDEQLKSGTASVVCLLNNFYPREAKVQWKVDNALQSGNSQESVTEQDSKDSTYSLSSTLTLSKADYEKHKVYACEVTHQGLSSPVTKSFNRGEC
notes: as for B1
B12: GpH7-A5/GpH7-B3 variant V266_07I/GpL16-k0 (antibody, human IgG1, kappa)
heavy 1: not shown
heavy 2: not shown
light: DIVMTQSPLSLPVTPGEPASISCQASESLVHSNRNTYLHWYLQKPGQSPQLLIYKVSNRFSGVPDRFSGSGSGTDFTLKISRVEAEDVGVYYCSQNTHVPPTFGQGTKVEIERTVAAPSVFIFPPSDEQLKSGTASVVCLLNNFYPREAKVQWKVDNALQSGNSQESVTEQDSKDSTYSLSSTLTLSKADYEKHKVYACEVTHQGLSSPVTKSFNRGEC
notes: as for B1
B13: GpH7-A5/GpH7-B3 variant V266_13S/GpL16-k0 (antibody, human IgG1, kappa)
heavy 1: not shown
heavy 2: not shown
light: DIVMTQSPLSLPVTPGEPASISCQASESLVHSNRNTYLHWYLQKPGQSPQLLIYKVSNRFSGVPDRFSGSGSGTDFTLKISRVEAEDVGVYYCSQNTHVPPTFGQGTKVEIERTVAAPSVFIFPPSDEQLKSGTASVVCLLNNFYPREAKVQWKVDNALQSGNSQESVTEQDSKDSTYSLSSTLTLSKADYEKHKVYACEVTHQGLSSPVTKSFNRGEC
notes: as for B1
B14: GpH7-A5/GpH7-B3 variant V266_09D/GpL16-k0 (antibody, human IgG1, kappa)
heavy 1: not shown
heavy 2: not shown
light: DIVMTQSPLSLPVTPGEPASISCQASESLVHSNRNTYLHWYLQKPGQSPQLLIYKVSNRFSGVPDRFSGSGSGTDFTLKISRVEAEDVGVYYCSQNTHVPPTFGQGTKVEIERTVAAPSVFIFPPSDEQLKSGTASVVCLLNNFYPREAKVQWKVDNALQSGNSQESVTEQDSKDSTYSLSSTLTLSKADYEKHKVYACEVTHQGLSSPVTKSFNRGEC
notes: as for B1
B15: GpH7-A5/GpH7-B3 variant S239_10E/GpL16-k0 (antibody, human IgG1, kappa)
heavy 1: not shown
heavy 2: not shown
light: DIVMTQSPLSLPVTPGEPASISCQASESLVHSNRNTYLHWYLQKPGQSPQLLIYKVSNRFSGVPDRFSGSGSGTDFTLKISRVEAEDVGVYYCSQNTHVPPTFGQGTKVEIERTVAAPSVFIFPPSDEQLKSGTASVVCLLNNFYPREAKVQWKVDNALQSGNSQESVTEQDSKDSTYSLSSTLTLSKADYEKHKVYACEVTHQGLSSPVTKSFNRGEC
notes: as for B1

Columns and labels:
[1] = target: T1, FcγRIIa H (FcγRIIa type H, His at position 131), extracellular domain with C-terminal His tag (human, UniProt P12318 34-217); assay: SPR (Biacore), antibody captured on antigen peptide chip, FcγR as analyte; relative to GpH7-A5/GpH7-B3/GpL16-k0 = 100
T1 construct: extracellular domain; expressed in FreeStyle293 cells; also called FcgRIIa H; 2aH; not shown: His tag attached to the C terminus
T1 sequence (looked up): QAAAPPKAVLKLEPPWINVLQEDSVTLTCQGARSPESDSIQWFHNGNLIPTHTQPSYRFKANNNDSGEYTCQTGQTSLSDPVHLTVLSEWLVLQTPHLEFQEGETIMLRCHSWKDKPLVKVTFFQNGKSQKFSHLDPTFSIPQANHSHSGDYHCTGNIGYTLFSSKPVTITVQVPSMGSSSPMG

[2] = target: T2, FcγRIIb, extracellular domain with C-terminal His tag (human, UniProt P31994 43-217); assay: as above
T2 construct: extracellular domain; expressed in FreeStyle293 cells; also called FcgRIIb; 2b; not shown: His tag attached to the C terminus
T2 sequence (looked up): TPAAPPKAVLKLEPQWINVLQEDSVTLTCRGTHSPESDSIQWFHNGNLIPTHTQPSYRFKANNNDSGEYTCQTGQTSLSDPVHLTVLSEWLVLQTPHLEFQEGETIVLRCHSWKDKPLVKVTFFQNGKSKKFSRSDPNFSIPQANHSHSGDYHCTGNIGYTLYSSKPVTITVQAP

[3] = target: T1, FcγRIIa H (FcγRIIa type H, His at …); assay: SPR (Biacore); He/Con_2aH divided by He/Con_2b (FcγRIIa H against FcγRIIb)

| Binder | He/Con_2aH (relative binding activity) [1] | He/Con_2b (relative binding activity) [2] | He_2aH/2b (IIaH/IIb) [3] [ratio] |
| --- | --- | --- | --- |
| B1 | 105 % of HeCon Ab (= 100) | 140 % of HeCon Ab (= 100) | 0.75 |
| B2 | 94.2 % of HeCon Ab (= 100) | 119 % of HeCon Ab (= 100) | 0.79 |
| B3 | 25.3 % of HeCon Ab (= 100) | 57.6 % of HeCon Ab (= 100) | 0.44 |
| B4 | 83.9 % of HeCon Ab (= 100) | 251 % of HeCon Ab (= 100) | 0.33 |
| B5 | 43.3 % of HeCon Ab (= 100) | 82.3 % of HeCon Ab (= 100) | 0.53 |
| B6 | 36.7 % of HeCon Ab (= 100) | 51.5 % of HeCon Ab (= 100) | 0.71 |
| B7 | 104 % of HeCon Ab (= 100) | 236 % of HeCon Ab (= 100) | 0.44 |
| B8 | 35.2 % of HeCon Ab (= 100) | 45.1 % of HeCon Ab (= 100) | 0.78 |
| B9 | 114 % of HeCon Ab (= 100) | 206 % of HeCon Ab (= 100) | 0.56 |
| B10 | 10.1 % of HeCon Ab (= 100) | 15.2 % of HeCon Ab (= 100) | 0.66 |
| B11 | 1.1 % of HeCon Ab (= 100) | -1.1 % of HeCon Ab (= 100) | -1.05 |
| B12 | 106 % of HeCon Ab (= 100) | 152 % of HeCon Ab (= 100) | 0.69 |
| B13 | 27 % of HeCon Ab (= 100) | 54.4 % of HeCon Ab (= 100) | 0.5 |
| B14 | 6.4 % of HeCon Ab (= 100) | 10.1 % of HeCon Ab (= 100) | 0.63 |
| B15 | 112 % of HeCon Ab (= 100) | 181 % of HeCon Ab (= 100) | 0.62 |
